For 1 substance, stoichiometry N results are on record in article PMC3657558.

The target in the test is CblC, full-length, His-tagged (UniProt Q9Y4U1). Description: native gel or EMSA. A general note: In EMSA bound probe runs differently from free probe, usually more slowly.

Usually stoichiometry N stands for a count of units in the complex or per binding partner.

Chain of UniProt Q9Y4U1 (Q9Y4U1 whole entry): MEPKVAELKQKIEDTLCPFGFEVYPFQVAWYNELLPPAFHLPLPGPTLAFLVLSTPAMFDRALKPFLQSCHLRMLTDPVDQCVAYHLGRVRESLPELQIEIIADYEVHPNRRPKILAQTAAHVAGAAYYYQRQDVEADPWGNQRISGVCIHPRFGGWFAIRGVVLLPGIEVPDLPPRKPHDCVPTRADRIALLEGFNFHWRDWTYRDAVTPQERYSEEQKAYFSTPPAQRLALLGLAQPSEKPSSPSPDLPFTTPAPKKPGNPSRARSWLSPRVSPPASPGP

Regarding “full-length CblD, N-terminal 6xHis-tagged (from UniProt Q9H3L0 39-296) (natural protein)”, the stoichiometry N was 1 CblC:CblD.
